Source: a protein production outcome set (Wang et al. 2014)

assay: label from the status in PepcDB records

For “MSAIRSRRSLLIPVLIVALLHVYIGVRLLPGLPVPMIVHSLAVLWLIASTLLMPAALMARRLSTPWADQLSWVGMMAMGFFSSLLVLTIARDLFLLVTLAIGWRPPGLTGYSALGAIALALAVTVIGFFQARGLAKVKEVDVPIANLPDALHGFTIAQISDIHVGPTIKRPYIDRIVDRVNSLAPDAIAITGDLVDGSVRELSAHTAPFARLSARHGAYVVTGNHEYYSGAEAWIVELRRLGLRVLMNEHVVVERGDASLVLGGVTDFTAGGFIESHRSDPVQALDGAPRDAAARVLLAHQPRTAPAAAAAGFDLQLSGHTHGGQFWPWNLFVPMQQPYVHGLNRHDNLWVYVSRGTGYWGPPKRFGAPSEITLVRLVRG”, which protein production is on record?
Its protein production is “failed”.

With “MSALDIPVTPENYTVWYEYFAQSNLDLNRAIDGFLANNVVFTKEVNTSLYKNFIQEKSPEVIENVQIETQILINSLISKITQLNQGTEAFSNTLADFGLQLQSSPDVNTLNQLVDGVIDEMQNLLVNNQTMEQSLNAMGQEVQNLKTEMENLSLAAMTDQLTSLHNRRAYEIAIQDHIHRAEEQHTRCSLLLIDIDRFKVFNDTYGHQVGDKVLAYVALALKQCVRGDDFVARYGGEEFVVLLPNTHFHDALQVAETLRGRISERRLAIGKDKKLSLGAITVSIGLASLQKGDDAETLFSRADKALYEAKSDGRNCVRG” as the sequence, how does the protein production read?
The protein production was “failed”.

For “MSANDKQYISYNNVHQLCQVSAERIKNFKPDLIIAIGGGGFIPARILRTFLKEPGVPTIRIFAIILSLYEDLNSVGSEVEEVGVKVSRTQWIDYEQCKLDLVGKNVLIVDEVDDTRTTLHYALSELEKDAAEQAKAKGIDTEKSPEMKTNFGIFVLHDKQKPKKADLPAEMLNDKNRYFAAKTVPDKWYAYPWESTDIVFHTRMAIEQGNDIFIPEQEHKQ”, which protein production is on record?
The protein production was “failed”.

With “MSAPTTFSVALHNETATAQLMADLALLVGPGDVITLTGDLGAGKTAAARAMIRYLADDEALEVPSPTFTLVQGYELPPFPVMHADLYRVEDESELEEIGLSPLPDATLVLIEWPERAPSALPEDRIDIALTHRPALGSNARAADITGYGKSAAQVARLKALREFLDASGYLDAMRRRMAGDASTRSYARLLRDDEIVILMNFPQRPDGAALYNGKSYSAAVHLAENVKPFVAIDEGLRAQGISAPAIHHADLDHGFLISEDFGSEGVIEGNPPRPIPERYEAATDVLAVLHGKTLPETLPLDGQSYAIPVFDTEAMLIEIGLMPEWYLPDRNAPLSEPKRAEFFAMWRELLKKPLAAPRTWIIRDYHSPNLIWLGMRTGIERVGVIDFQDTVLGPQSYDVVSLLQDARIDVPENLELTLLSRYIKARRAGDASFDPAGFAELYAIMSAQRNTRLLGTFARLNRRDGKPHYLRHQPRIWTYLQRSLAHPALSHLRDWYLANVPPPQRPSQEPAPEPPQGLEHHHHHH” as the sequence, how does the protein production read?
Its protein production is “not failed”.

Which protein production does the source give for “MSARSLRQEALNLPNAITATRIALIPVFLWFTFYESRVDSFIAAVLYAVTGATDFLDGWVARRKNLVTVIGKFLDPLADKLIVMAALVMLVHLGRVAAWVCIVVLAREFIVTGLRTIAMSEGIVIAAGQEGKHKTAFQVAGITFLLLHYTYPIDAIFFSFDLDANRVGTWLVYISLFFSVWSAVSYFANFIRAVYRREGEAQAAEDVRPNRRTSRG” here?
The protein production was “failed”.

For “MSASAPQAHGPAATGTVTTDVPARLDRLPWSRWHWMIVIGLGTVWILDGLEVTTVGNIAGRLSEDGSGLSITSAQVTGVAAALYVAGACAGALFFGWLTDRFGRKKLFMVTLVVYLSATALTALSFNSWWFFTFRFLTGFGIGGEYAAINSAIDELIPAKYRGRVDLIINGSYWLGAIGGALLSIVMLDTSIFPKDLGWRLTFALGVVLGLVILLVRRHVPESPRWQFIHGRGEDAEALVSSVEREIEQEKGEPLPRAESEITIEQRKSIGFGLIAKTVFGRYPKRAVLGLALFIGQAFLYNAITFGFGAILTTFYDVPTGGTGYYFAVIAAGNFIGPLLLGKLFDTVGRRIMIASTYLLSGLLLFGTAWLFDRGSLSAMTLTACWCAVLFFASAGASSAYLTVSEVFPMETRAMAIAFFYALGTAAGGISGPLVFADLTESGVVGDTVLAFQIGAGLMCAAGLVAAFLAVNAERRSLEDIAEPLSVAQTTAPAPASASGT”, which protein production is on record?
Its protein production is “failed”.

With “MSASRRSGTTDELGPDGPDPERDGPDGADLLAALLDGMDAALCAFDADGVVTHWNREAERILGWTAAEAVGRRGFAGWAVRTADAEDVEARLMTAMQAPGRQVHEFALLTKDGGRVLVRTQSAAVHGPDGKPAGVYCAFSEVHTQIDLERSIALSEALFEDASWGVVLVDADLRPAVVNAHAARALGTGRTTVLGRPLGDLLSQGVEELESALTHVLAEGAPPAPAEMWVSVRTAEGEKRRCWRSGFLRLASPLAEEPVPLGVGWLFQDITEAKQTEQEAALLRFRTNQLHRAARAAAECEDPGEAATVHLDFSLAGFADHALIDRVAGGPVADGDRDGDGPPVRLVRAADTPSGAPGPSLLVGKAELPVWYAEGHPALQCVERAGSVRASAGVSDAERAREWAISRQWPGDAVHALCAVLRSRGRTLGVVTFLRGAGRSQFERADAVYAEDVAVRIAAALDLAGLAGLAGPAGER” as the sequence, how does the protein production read?
Its protein production is “failed”.

For “MSATFSPTAVTDLKDIQDVERLMGRIKEARAAVGEVIFGQEAVVDEVLVTLLAGGHALLIGLPGLAKTKLVQTLGTVVGLRDKRVQFTPDLMPADILGSEVLEEDAAGQRGFRFLPGPVFCQLLMADEINRASPRTQSALLQAMQEHRVSVAGHYHDLPAPFHVLATQNPIEQEGTYPLPEAQLDRFLMQVDVGYPDEAAERRMLAATTGVHQPEARAVMTPAELQAAQALVRRVPVGDSVVDAILSLVRAGRPESSPLPEVRDWVAWGPGPRASQALTLAVRARALLDGRFAPSIEDVIALAHPILRHRMALSFGARADGVTLGRVVDRLIDKIALEHHHHHH”, which protein production is on record?
Its protein production is “not failed”.

For “MSATLQDHTVAFRDPALTDIARAIAHGDVARIKALAPTVDLAAHGDQNVTLLEWAIWNEQPRALAALLDAGADPSLPGMDQETVVHMAAMAQDPEYLQILLQHKAPIDVVSARAGWTPLFRAMQSKRDAQIDLLIKAGADVQRVDHTGNSLLHLAAQSGAASPAVLTLLNAGVDPAVRNAQQKTFQAYFFTTPDRLLNASGQQVRSEVRAWLNAHNIPVESSR”, which protein production is on record?
Its protein production is “failed”.

For “MSAVCGGAARMLRTPGRHGYAAEFSPYLPGRLACATAQHYGIAGCGTLLILDPDEAGLRLFRSFDWNDGLFDVTWSENNEHVLITCSGDGSLQLWDTAKAAGPLQVYKEHAQEVYSVDWSQTRGEQLVVSGSWDQTVKLWDPTVGKSLCTFRGHESIIYSTIWSPHIPGCFASASGDQTLRIWDVKAAGVRIVIPAHQAEILSCDWCKYNENLLVTGAVDCSLRGWDLRNVRQPVFELLGHTYAIRRVKMESCPVTQTRSQLTATSAFWVQAVLLPQPTE”, which protein production is on record?
The protein production was “failed”.

Which protein production does the source give for “MSAVTESVLESIISPVTMSEFLEEYWPVKPLVARGEVERFTSIPGFEKVRTLENVLAIYNNPVMVVGDAVIEESEGITDRFLVSPAEALEWYEKGAALEFDFTDLFIPQVRRWIEKLKAELRLPAGTSSKAIVYAAKNGGGFKAHFDAYTNLIFQIQGEKTWKLAKNENVSNPMQHYDLSEAPYYPDDLQSYWKGDPPKEDLPDAEIVNLTPGTMLYLPRGLWHSTKSDQATLALNITFGQPAWLDLMLAALRKKLISDNRFRELAVNHQSLHESSKSELNGYLESLIQTLSENAETLTPEQIFQSQDSDFDPYQSTQLVFRQLLTSYKF” here?
Its protein production is “not failed”.

With “MSCFYLDLLKIKDPSFMKRLDIQELEALAADIRAFLITSTSKSGGHIGPNLGVVELTIALHYSFNSPKDKFIWDVGHQSYVHKILTGRANQFGTLREHGGLDGFPKRKESIHDVFETGHSSTSLSAAAGMVIARDIKKEDFYVIPIIGDGALTGGMALEALNHIGDMGKDMIVILNDNDMSIAPNVGAIHNILGKLRTSDTSKQTKTNVDGAFFEELGFMYLGPIDGHDIEEVITNLELAKRAKGPVLLHIVTKKGKGYQPAELDSRGTWHGTGPYKVETGSFIKPAKRAASWSSVISNELIRLAEMDERIVAITPAMPVGSKLEKFAKAFPERFFDVGIAEQHATTMAAGLATQGMKPFLAIYSTFLQRAYDQLVHDVCRQKLNVVIGIDRAGLVGADGETHQGIFDISFLNSIPNMTISMPKDEVEARQLMDTAFSYNDGPFAIRYPRGEAPGVQVVESNTLIPIGQWETIIQPLDAVILTFGPTIELALKAAEQLEIEGYRVGVINARYIKPLDEALLHKILKQKIPILTVEESLLKGGFGASVLEFIEANNYRDVIMHRIGLPDEFISHGSVSIILESFGISTTGLVLKIKEMLAQSGKLRAKRL” as the sequence, how does the protein production read?
The protein production was “failed”.
